This assay has as its target human FGFR1c + KLB receptor complex on HEK293 iLite FGF21 reporter cells (human, UniProt P11362 22-822; Q86Z14 1-1044). Put plainly: cell-based or functional assay.

Sequence of human FGFR1c + KLB receptor complex on HEK293 iLite FGF21 reporter cells (P11362 22-822, chain 1 of 2): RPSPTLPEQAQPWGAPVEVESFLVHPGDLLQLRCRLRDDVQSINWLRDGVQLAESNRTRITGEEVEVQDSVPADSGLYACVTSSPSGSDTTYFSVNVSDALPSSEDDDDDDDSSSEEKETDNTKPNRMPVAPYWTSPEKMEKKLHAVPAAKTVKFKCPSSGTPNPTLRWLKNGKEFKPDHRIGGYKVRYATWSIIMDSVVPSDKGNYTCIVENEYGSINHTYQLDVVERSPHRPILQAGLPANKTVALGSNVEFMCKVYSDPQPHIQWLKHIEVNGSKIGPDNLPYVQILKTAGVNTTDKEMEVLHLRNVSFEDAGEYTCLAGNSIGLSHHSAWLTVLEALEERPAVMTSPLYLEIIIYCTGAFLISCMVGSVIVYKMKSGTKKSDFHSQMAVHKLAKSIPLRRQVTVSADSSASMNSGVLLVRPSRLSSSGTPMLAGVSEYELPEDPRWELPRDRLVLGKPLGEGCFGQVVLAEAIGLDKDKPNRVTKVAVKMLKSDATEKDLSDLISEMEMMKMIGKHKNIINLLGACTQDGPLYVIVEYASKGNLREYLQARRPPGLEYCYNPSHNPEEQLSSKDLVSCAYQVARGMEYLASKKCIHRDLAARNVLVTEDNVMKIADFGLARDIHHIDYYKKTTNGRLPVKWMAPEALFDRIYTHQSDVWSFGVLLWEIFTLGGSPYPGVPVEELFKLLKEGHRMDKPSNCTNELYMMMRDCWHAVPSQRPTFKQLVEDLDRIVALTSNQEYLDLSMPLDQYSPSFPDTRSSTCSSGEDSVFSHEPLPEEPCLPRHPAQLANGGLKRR
Sequence of human FGFR1c + KLB receptor complex on HEK293 iLite FGF21 reporter cells (Q86Z14 whole entry, chain 2 of 2): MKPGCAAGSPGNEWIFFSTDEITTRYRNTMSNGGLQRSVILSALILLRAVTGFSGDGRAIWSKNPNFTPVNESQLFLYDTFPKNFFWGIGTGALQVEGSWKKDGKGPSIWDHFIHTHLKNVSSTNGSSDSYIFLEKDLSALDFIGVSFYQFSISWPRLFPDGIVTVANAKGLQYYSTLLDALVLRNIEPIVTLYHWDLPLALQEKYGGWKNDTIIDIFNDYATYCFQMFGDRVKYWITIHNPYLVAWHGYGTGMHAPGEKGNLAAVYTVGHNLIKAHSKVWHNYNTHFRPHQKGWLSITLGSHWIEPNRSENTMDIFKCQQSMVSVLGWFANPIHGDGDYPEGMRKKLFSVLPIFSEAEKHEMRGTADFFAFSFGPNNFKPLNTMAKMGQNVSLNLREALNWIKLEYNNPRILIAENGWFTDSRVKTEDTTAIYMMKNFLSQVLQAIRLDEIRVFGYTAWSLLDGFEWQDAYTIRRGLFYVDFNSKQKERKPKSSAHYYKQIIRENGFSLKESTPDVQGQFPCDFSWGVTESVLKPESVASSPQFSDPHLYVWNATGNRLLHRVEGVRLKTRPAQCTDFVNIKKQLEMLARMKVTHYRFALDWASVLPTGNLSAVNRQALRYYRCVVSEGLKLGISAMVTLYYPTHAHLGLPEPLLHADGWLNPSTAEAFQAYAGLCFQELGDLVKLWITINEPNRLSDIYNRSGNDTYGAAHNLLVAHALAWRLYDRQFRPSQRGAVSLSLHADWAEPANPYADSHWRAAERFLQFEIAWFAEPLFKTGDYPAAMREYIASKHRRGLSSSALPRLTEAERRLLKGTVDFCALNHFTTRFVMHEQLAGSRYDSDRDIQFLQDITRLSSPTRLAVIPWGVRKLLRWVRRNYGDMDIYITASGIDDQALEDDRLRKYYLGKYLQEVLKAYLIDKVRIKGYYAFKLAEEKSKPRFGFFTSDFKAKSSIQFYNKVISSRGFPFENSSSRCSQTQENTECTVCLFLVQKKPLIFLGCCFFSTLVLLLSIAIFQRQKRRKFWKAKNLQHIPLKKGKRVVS

B1: Ab0331 (antibody, human IgG4 S228P, lambda)
heavy: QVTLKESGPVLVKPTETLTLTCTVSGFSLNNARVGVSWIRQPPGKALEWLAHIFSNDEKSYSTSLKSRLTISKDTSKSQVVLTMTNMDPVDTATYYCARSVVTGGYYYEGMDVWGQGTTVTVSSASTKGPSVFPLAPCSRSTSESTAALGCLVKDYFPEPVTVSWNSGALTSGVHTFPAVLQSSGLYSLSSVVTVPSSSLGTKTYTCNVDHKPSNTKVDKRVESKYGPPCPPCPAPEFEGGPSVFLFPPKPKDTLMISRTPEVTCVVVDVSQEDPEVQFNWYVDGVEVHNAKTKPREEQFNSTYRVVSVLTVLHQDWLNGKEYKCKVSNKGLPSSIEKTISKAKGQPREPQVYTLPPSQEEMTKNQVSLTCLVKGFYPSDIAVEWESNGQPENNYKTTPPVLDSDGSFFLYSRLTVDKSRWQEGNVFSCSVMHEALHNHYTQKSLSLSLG
light: SYVLTQPPSVSVAPGQTARITCGGSNIGSESVHWYQQKPGQAPVLVVYSESDRPSGIPERFSGSNSGNTATLTISRVEAGDEADYYCQVWEGESDHVVFGGGTKLTVLGQPKANPTVTLFPPSSEELQANKATLVCLISDFYPGAVTVAWKADGSPVKAGVETTKPSKQSNNKYAASSYLSLTPEQWKSHRSYSCQVTHEGSTVEKTVAPTECS
For orientation: EC50 means the midpoint of the concentration-response curve. In general, Emax refers to the size of the effect at its maximum, as opposed to the concentration needed. As for B1, the EC50 turned out to be 0.04 nM and the maximum response (Emax) was 1090%.

B2: Ab0335 (antibody, human IgG4 S228P, lambda)
heavy: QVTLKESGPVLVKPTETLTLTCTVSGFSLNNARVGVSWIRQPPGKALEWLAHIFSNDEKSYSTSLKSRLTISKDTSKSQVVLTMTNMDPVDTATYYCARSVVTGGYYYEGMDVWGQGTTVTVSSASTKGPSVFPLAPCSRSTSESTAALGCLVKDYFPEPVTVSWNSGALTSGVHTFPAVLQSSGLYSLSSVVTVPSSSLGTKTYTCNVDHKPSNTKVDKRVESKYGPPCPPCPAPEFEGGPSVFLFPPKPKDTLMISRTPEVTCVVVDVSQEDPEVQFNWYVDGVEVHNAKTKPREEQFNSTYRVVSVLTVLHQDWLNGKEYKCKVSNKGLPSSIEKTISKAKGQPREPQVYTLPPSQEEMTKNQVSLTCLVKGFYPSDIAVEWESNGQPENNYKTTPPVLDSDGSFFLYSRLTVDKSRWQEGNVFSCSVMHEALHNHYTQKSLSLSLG
light: SYVLTQPPSVSVAPGQTARITCGGSNIGSESVHWYQQKPGQAPVLVVYSASDRPSGIPERFSGSNSGNTATLTISRVEAGDEADYYCQVWEGESDHVVFGGGTKLTVLGQPKANPTVTLFPPSSEELQANKATLVCLISDFYPGAVTVAWKADGSPVKAGVETTKPSKQSNNKYAASSYLSLTPEQWKSHRSYSCQVTHEGSTVEKTVAPTECS
With B2, the EC50 amounted to 0.04 nM and the Emax came to 1220%.

B3: Ab0351 (antibody, human IgG4 S228P, lambda)
heavy: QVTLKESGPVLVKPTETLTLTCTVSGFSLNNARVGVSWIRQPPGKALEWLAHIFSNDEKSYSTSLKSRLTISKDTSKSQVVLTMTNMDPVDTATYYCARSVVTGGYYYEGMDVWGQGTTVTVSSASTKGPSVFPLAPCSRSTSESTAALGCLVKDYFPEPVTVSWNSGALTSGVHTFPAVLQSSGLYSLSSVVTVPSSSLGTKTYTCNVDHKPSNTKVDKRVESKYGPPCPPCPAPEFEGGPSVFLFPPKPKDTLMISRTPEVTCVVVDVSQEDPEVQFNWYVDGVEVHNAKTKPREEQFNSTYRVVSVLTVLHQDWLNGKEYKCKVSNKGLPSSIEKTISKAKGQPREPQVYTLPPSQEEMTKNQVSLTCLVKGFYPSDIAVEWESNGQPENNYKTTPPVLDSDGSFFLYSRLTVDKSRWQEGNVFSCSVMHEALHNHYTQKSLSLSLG
light: SYVLTQPPSVSVAPGQTARITCGGSNIGSESVHWYQQKPGQAPVLVVYEESDRPSGIPERFSGSNSGNTATLTISRVEAGDEADYYCQVWEGESDHVVFGGGTKLTVLGQPKANPTVTLFPPSSEELQANKATLVCLISDFYPGAVTVAWKADGSPVKAGVETTKPSKQSNNKYAASSYLSLTPEQWKSHRSYSCQVTHEGSTVEKTVAPTECS
With B3, the concentration for a half-maximal effect (EC50) is 0.03 nM and the Emax turned out to be 1040%.

B4: Ab0410 (antibody, IgG4, V domains shown)
VH: QVTLKESGPVLVKPTETLTLTCTVSGFSLNNARVGVSWIRQPPGKALEWLAHIFSNDEKSYSTSLKSRLTISKDTSKSQVVLTMTNMDPVDTATYYCARSVVTGGYYYEGMDVWGQGTTVTVSS
VL: SYVLTQPPSVSVAPGQTARITCGGNNIGSESVHWYQQKPGQAPVLVVDDSDRPSGIPERFSGSNSGNTATLTISRVEAGDEADYYCQVYDGNSSHVVFGGGTKLTVLG
On to B4, for which the half-maximal effective concentration (EC50) was greater than 100 nM.

B5: Ab0339 (antibody, IgG4, V domains shown)
VH: QVTLKESGPVLVKPTETLTLTCTVSGFSLNNARVGVSWIRQPPGKALEWLAHIFSNDEKSYSTSLKSRLTISKDTSKSQVVLTMTNMDPVDTATYYCARSVVTGGYYYEGMDVWGQGTTVTVSS
VL: SYVLTQPPSVSVAPGQTARITCGGSNIGSESVHWYQQKPGQAPVLVVYAESDRPSGIPERFSGSNSGNTATLTISRVEAGDEADYYCQVWAGSSDHVVFGGGTKLTVLG
With B5, the EC50 is 2.16 nM and the Emax amounted to 545%.

B6: Ab0342 (antibody, IgG4, V domains shown)
VH: QVTLKESGPVLVKPTETLTLTCTVSGFSLNNARVGVSWIRQPPGKALEWLAHIFSNDEKSYSTSLKSRLTISKDTSKSQVVLTMTNMDPVDTATYYCARSVVTGGYYYEGMDVWGQGTTVTVSS
VL: SYVLTQPPSVSVAPGQTARITCGGSNIGSESVHWYQQKPGQAPVLVVYAASDRPSGIPERFSGSNSGNTATLTISRVEAGDEADYYCQVWAGESDHVVFGGGTKLTVLG
For B6, the EC50 was 0.34 nM and the Emax amounted to 775%.

B7: Ab0343 (antibody, IgG4, V domains shown)
VH: QVTLKESGPVLVKPTETLTLTCTVSGFSLNNARVGVSWIRQPPGKALEWLAHIFSNDEKSYSTSLKSRLTISKDTSKSQVVLTMTNMDPVDTATYYCARSVVTGGYYYEGMDVWGQGTTVTVSS
VL: SYVLTQPPSVSVAPGQTARITCGGSNIGSESVHWYQQKPGQAPVLVVYAASDRPSGIPERFSGSNSGNTATLTISRVEAGDEADYYCQVWAGSSDHVVFGGGTKLTVLG
As for B7, the EC50 was found to be 1.37 nM and the Emax turned out to be 482%.

B8: Ab0341 (antibody, IgG4, V domains shown)
VH: QVTLKESGPVLVKPTETLTLTCTVSGFSLNNARVGVSWIRQPPGKALEWLAHIFSNDEKSYSTSLKSRLTISKDTSKSQVVLTMTNMDPVDTATYYCARSVVTGGYYYEGMDVWGQGTTVTVSS
VL: SYVLTQPPSVSVAPGQTARITCGGSNIGSESVHWYQQKPGQAPVLVVYAYSDRPSGIPERFSGSNSGNTATLTISRVEAGDEADYYCQVWAGSSDHVVFGGGTKLTVLG
B8: the EC50 was found to be 1.4 nM and the Emax is 528%.

B9: Ab0329 (antibody, IgG4, V domains shown)
VH: QVTLKESGPVLVKPTETLTLTCTVSGFSLNNARVGVSWIRQPPGKALEWLAHIFSNDEKSYSTSLKSRLTISKDTSKSQVVLTMTNMDPVDTATYYCARSVVTGGYYYEGMDVWGQGTTVTVSS
VL: SYVLTQPPSVSVAPGQTARITCGGSNIGSESVHWYQQKPGQAPVLVVYYSSDRPSGIPERFSGSNSGNTATLTISRVEAGDEADYYCQVWAGSSDHVVFGGGTKLTVLG
For B9, the half-maximal effective concentration (EC50) is 4.59 nM and the maximal effect (Emax) was determined as 443%.

B10: Ab0346 (antibody, IgG4, V domains shown)
VH: QVTLKESGPVLVKPTETLTLTCTVSGFSLNNARVGVSWIRQPPGKALEWLAHIFSNDEKSYSTSLKSRLTISKDTSKSQVVLTMTNMDPVDTATYYCARSVVTGGYYYEGMDVWGQGTTVTVSS
VL: SYVLTQPPSVSVAPGQTARITCGGSNIGSESVHWYQQKPGQAPVLVVYAHSDRPSGIPERFSGSNSGNTATLTISRVEAGDEADYYCQVWAGSSDHVVFGGGTKLTVLG
Take B10: the EC50 is 2.25 nM and the Emax amounted to 532%.

B11: Ab0347 (antibody, IgG4, V domains shown)
VH: QVTLKESGPVLVKPTETLTLTCTVSGFSLNNARVGVSWIRQPPGKALEWLAHIFSNDEKSYSTSLKSRLTISKDTSKSQVVLTMTNMDPVDTATYYCARSVVTGGYYYEGMDVWGQGTTVTVSS
VL: SYVLTQPPSVSVAPGQTARITCGGSNIGSESVHWYQQKPGQAPVLVVYASSDRPSGIPERFSGSNSGNTATLTISRVEAGDEADYYCQVWAGSSDHVVFGGGTKLTVLG
In the case of B11, the EC50 is 0.24 nM and the Emax amounted to 695%.

B12: Ab0336 (antibody, IgG4, V domains shown)
VH: QVTLKESGPVLVKPTETLTLTCTVSGFSLNNARVGVSWIRQPPGKALEWLAHIFSNDEKSYSTSLKSRLTISKDTSKSQVVLTMTNMDPVDTATYYCARSVVTGGYYYEGMDVWGQGTTVTVSS
VL: SYVLTQPPSVSVAPGQTARITCGGSNIGSESVHWYQQKPGQAPVLVVYSHSDRPSGIPERFSGSNSGNTATLTISRVEAGDEADYYCQVWAGSSDHVVFGGGTKLTVLG
As for B12, the EC50 amounted to 2.91 nM and the Emax came to 576%.

B13: Ab0334 (antibody, IgG4, V domains shown)
VH: QVTLKESGPVLVKPTETLTLTCTVSGFSLNNARVGVSWIRQPPGKALEWLAHIFSNDEKSYSTSLKSRLTISKDTSKSQVVLTMTNMDPVDTATYYCARSVVTGGYYYEGMDVWGQGTTVTVSS
VL: SYVLTQPPSVSVAPGQTARITCGGSNIGSESVHWYQQKPGQAPVLVVYSASDRPSGIPERFSGSNSGNTATLTISRVEAGDEADYYCQVWAGSSDHVVFGGGTKLTVLG
Regarding B13, the EC50 is 1.02 nM and the Emax was found to be 718%.

B14: Ab0328 (antibody, IgG4, V domains shown)
VH: QVTLKESGPVLVKPTETLTLTCTVSGFSLNNARVGVSWIRQPPGKALEWLAHIFSNDEKSYSTSLKSRLTISKDTSKSQVVLTMTNMDPVDTATYYCARSVVTGGYYYEGMDVWGQGTTVTVSS
VL: SYVLTQPPSVSVAPGQTARITCGGSNIGSESVHWYQQKPGQAPVLVVYYASDRPSGIPERFSGSNSGNTATLTISRVEAGDEADYYCQVWAGSSDHVVFGGGTKLTVLG
B14: the EC50 is 4.11 nM and the Emax was 421%.

Source of the values: US20220010021A1 (Sanofi, published 2022).
